For one data set, the target named is T1, blue laccase (Sclerotinia sclerotiorum, UniProt A7EM18).
T1 construct: gene SS1G_06365; native, secreted, purified from culture medium; ~66 kDa glycoprotein; blue form (phenolics removed by preparative native PAGE or low-coloured medium)
T1 sequence (A7EM18 28-577): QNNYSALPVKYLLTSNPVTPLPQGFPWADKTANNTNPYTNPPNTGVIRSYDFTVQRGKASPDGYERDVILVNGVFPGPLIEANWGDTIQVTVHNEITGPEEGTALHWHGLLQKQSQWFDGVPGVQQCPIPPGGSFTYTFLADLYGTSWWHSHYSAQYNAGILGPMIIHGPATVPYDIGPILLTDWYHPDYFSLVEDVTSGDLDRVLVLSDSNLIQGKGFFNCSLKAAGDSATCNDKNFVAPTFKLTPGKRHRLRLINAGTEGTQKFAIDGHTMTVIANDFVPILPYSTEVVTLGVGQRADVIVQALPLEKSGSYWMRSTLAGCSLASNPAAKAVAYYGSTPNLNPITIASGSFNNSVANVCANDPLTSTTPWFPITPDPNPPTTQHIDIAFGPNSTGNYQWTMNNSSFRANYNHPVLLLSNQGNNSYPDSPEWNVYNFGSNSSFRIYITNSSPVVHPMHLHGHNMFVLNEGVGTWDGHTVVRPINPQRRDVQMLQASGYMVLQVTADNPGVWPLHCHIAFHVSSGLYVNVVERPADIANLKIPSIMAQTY
The data set can be described thus: UV-vis after desalting. It counts as binding. The note with it: covalent, adduct of the radical product formed on turnover, site not identified; 25 mM MES pH 6.3.

Substrate in data set [1]: CCn1c(=NN=c2sc3cc(S(=O)(=O)O)ccc3n2CC)sc2cc(S(=O)(=O)O)ccc21
The data set can be described thus: purified protein. The class given is biochemical, Sclerotinia sclerotiorum. The note with it: 50 mM acetate pH 4, relative SD 5–20%.

Substrate in data set [2]: Cc1cc(-c2cc(C)c(N)c(C)c2)cc(C)c1N
Put plainly: purified protein. The class given is biochemical, Sclerotinia sclerotiorum. The note with it: 50 mM acetate pH 4, relative SD 5–20%.

Take `COc1ccccc1O` [guaiacol]: at blue laccase, the UV-vis after desalting entry is recorded as “purple with ABTS, red with guaiacol, orange with TMB”.

Turning to `Cc1cc(-c2cc(C)c(N)c(C)c2)cc(C)c1N` [TMB, 3,3’,5,5’-tetramethylbenzidine], on blue laccase, the UV-vis after desalting entry is reported as “purple with ABTS, red with guaiacol, orange with TMB”.

B1: yellow laccase (Sclerotinia sclerotiorum 1980 UF-70) (protein)
chain: QNNYSALPVKYLLTSNPVTPLPQGFPWADKTANNTNPYTNPPNTGVIRSYDFTVQRGKASPDGYERDVILVNGVFPGPLIEANWGDTIQVTVHNEITGPEEGTALHWHGLLQKQSQWFDGVPGVQQCPIPPGGSFTYTFLADLYGTSWWHSHYSAQYNAGILGPMIIHGPATVPYDIGPILLTDWYHPDYFSLVEDVTSGDLDRVLVLSDSNLIQGKGFFNCSLKAAGDSATCNDKNFVAPTFKLTPGKRHRLRLINAGTEGTQKFAIDGHTMTVIANDFVPILPYSTEVVTLGVGQRADVIVQALPLEKSGSYWMRSTLAGCSLASNPAAKAVAYYGSTPNLNPITIASGSFNNSVANVCANDPLTSTTPWFPITPDPNPPTTQHIDIAFGPNSTGNYQWTMNNSSFRANYNHPVLLLSNQGNNSYPDSPEWNVYNFGSNSSFRIYITNSSPVVHPMHLHGHNMFVLNEGVGTWDGHTVVRPINPQRRDVQMLQASGYMVLQVTADNPGVWPLHCHIAFHVSSGLYVNVVERPADIANLKIPSIMAQTY
notes: native, secreted, purified from culture medium; ~66 kDa; as-isolated yellow form, natural covalent phenolic adduct of the same protein as P1
Usually Km stands for the concentration of substrate that gives half-maximal velocity. By kcat is commonly meant the maximal rate divided by the concentration of active sites. On to B1, for which, in the data set “purified protein [1]”, the Km was determined as 14.1 µM and the kcat worked out at 5.7 s⁻¹. For the same molecule, in “purified protein [2]”, the Km was 2.70 µM and the kcat came to 3.1 s⁻¹.

These data come from PMC6974248, ““Yellow” laccase from Sclerotinia sclerotiorum is a blue laccase that enhances its substrate affinity by forming a reversible tyrosyl-product adduct” (PLoS ONE, 2020).
